Increase in intracellular Ca2+ (FLIPR Calcium 6 dye, mean RFU) of CCR5-transfected HEK293T cells on injection of 100 nM PSC-RANTES; no ATP pre-stimulation, no inhibitor and increase in intracellular Ca2+ (FLIPR Calcium 6 dye, mean RFU) of CCR5-transfected HEK293T cells on injection of 100 nM RANTES; buffer pre-injection, no inhibitor data for 2 substances are collected here from article PMC8159800.

For test [1], the target named is C-C chemokine receptor type 5 (CCR5) with a C-terminal 1D4 epitope tag (human) (UniProt P51681).
UniProt P51681, sequence (P51681 whole entry): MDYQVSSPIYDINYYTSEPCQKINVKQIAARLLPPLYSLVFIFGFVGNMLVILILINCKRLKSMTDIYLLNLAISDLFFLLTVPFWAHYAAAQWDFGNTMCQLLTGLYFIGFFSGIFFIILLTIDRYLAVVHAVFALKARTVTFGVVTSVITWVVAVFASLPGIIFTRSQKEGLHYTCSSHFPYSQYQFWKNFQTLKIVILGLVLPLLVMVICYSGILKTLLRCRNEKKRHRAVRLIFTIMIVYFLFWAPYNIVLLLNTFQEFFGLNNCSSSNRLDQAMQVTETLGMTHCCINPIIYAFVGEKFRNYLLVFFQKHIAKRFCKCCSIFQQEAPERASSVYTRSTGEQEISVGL
Test [2] has the same target. This is another data set of the same source.

PSC-RANTES, sequence (P13501 24-91): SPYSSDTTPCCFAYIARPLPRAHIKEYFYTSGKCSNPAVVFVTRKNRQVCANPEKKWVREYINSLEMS

For the substance “PSC-RANTES (from UniProt P13501 24-91) (ligand)”, the increase in intracellular Ca2+ (FLIPR Calcium 6 dye, mean RFU) of CCR5-transfected HEK293T cells on injection of 100 nM PSC-RANTES; no ATP pre-stimulation, no inhibitor in test [1] was determined as 9900 RFU.

In the case of “regulated on activation, normal T cell expressed and secreted (RANTES) (from UniProt P13501 24-91) (ligand)”, the increase in intracellular Ca2+ (FLIPR Calcium 6 dye, mean RFU) of CCR5-transfected HEK293T cells on injection of 100 nM RANTES; buffer pre-injection, no inhibitor in test [2] is 3830 RFU.
